Laboratory results as given in article PMC7043357.

Target: T1, Rop (UniProt P03051 1-63)
T1 sequence: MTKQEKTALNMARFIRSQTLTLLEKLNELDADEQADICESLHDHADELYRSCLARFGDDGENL
Test: EMSA

B1: RNA1-U6/RNA2-WT kissing dimer (structured_RNA)
RNA 1: GGCAGCUUUUUUUUGGUAGUUUUUUGCUGCC
RNA 2: GCACCGCUACCAACGGUGC
binding result: binds
